Assay results reported in patent US20230002480A1.

Columns and labels:
Assay in all cases: cell-based or functional assay
[1] = biological target: HIV-1 Env of pseudovirus PVO.4 (HIV-1)
[2] = biological target: HIV-1 Env of pseudovirus ZM249M.PL1 (HIV-1)
[3] = biological target: HIV-1 Env of pseudovirus TRO.11 (HIV-1)
[4] = biological target: HIV-1 Env of pseudovirus ZM214M.PL15 (HIV-1)
[5] = biological target: HIV-1 Env of pseudovirus Q461.e2 (HIV-1)
[6] = biological target: HIV-1 Env of pseudovirus Ce0682_E4 (HIV-1)
[7] = biological target: HIV-1 Env of pseudovirus R3265.c06 (HIV-1)
[8] = biological target: HIV-1 Env of pseudovirus Ce2060_G9 (HIV-1)
[9] = biological target: HIV-1 Env of pseudovirus Q259.d2.17 (HIV-1)
[10] = biological target: HIV-1 Env of pseudovirus CNE53 (HIV-1)
[11] = biological target: HIV-1 Env of pseudovirus 235-47 (HIV-1)
[12] = biological target: HIV-1 Env of pseudovirus C4118.c09 (HIV-1)
[13] = biological target: HIV-1 Env of pseudovirus BJOX009000.02.4 (HIV-1)
[14] = biological target: HIV-1 Env of pseudovirus 62357_14_D3_4589 (HIV-1)
[15] = biological target: HIV-1 Env of pseudovirus WEAU_d15_410_787 (HIV-1)
[16] = biological target: HIV-1 Env of pseudovirus HIV-0013095-2.11 (HIV-1)
[17] = biological target: HIV-1 Env of pseudovirus X2088_c9 (HIV-1)
[18] = biological target: HIV-1 Env of pseudovirus R1166.c01 (HIV-1)
[19] = biological target: HIV-1 Env of pseudovirus HIV-16845-2.22 (HIV-1)
[20] = biological target: HIV-1 Env of pseudovirus REJO4541.67 (HIV-1)
[21] = biological target: HIV-1 Env of pseudovirus C1080.c03 (HIV-1)
[22] = biological target: HIV-1 Env of pseudovirus QH0692.42 (HIV-1)
[23] = biological target: HIV-1 Env of pseudovirus 3365.v2.c2 (HIV-1)
[24] = biological target: HIV-1 Env of pseudovirus BJOX015000.11.5 (HIV-1)
[25] = biological target: HIV-1 Env of pseudovirus Du156.12 (HIV-1)
[26] = biological target: HIV-1 Env of pseudovirus 191084 B7-19 (HIV-1)
[27] = biological target: HIV-1 Env of pseudovirus T257-31 (HIV-1)
[28] = biological target: HIV-1 Env of pseudovirus Ce2010_F5 (HIV-1)
[29] = biological target: HIV-1 Env of pseudovirus BJOX010000.06.2 (HIV-1)
[30] = biological target: HIV-1 Env of pseudovirus Du422.1 (HIV-1)

N49P7.1 (antibody)
neutralization IC50 [1]: 0.124 µg/mL | neutralization IC80 [1]: 0.421 µg/mL | neutralization MPI [1]: 100 | neutralization IC50 [2]: 0.071 µg/mL | neutralization IC80 [2]: 0.239 µg/mL | neutralization MPI [2]: 100 | neutralization IC50 [3]: 0.055 µg/mL | neutralization IC80 [3]: 0.191 µg/mL | neutralization MPI [3]: 100 | neutralization IC50 [4]: 0.257 µg/mL | neutralization IC80 [4]: 0.853 µg/mL | neutralization MPI [4]: 100 | neutralization IC50 [5]: 0.329 µg/mL | neutralization IC80 [5]: 1.14 µg/mL | neutralization MPI [5]: 100 | neutralization IC50 [6]: 0.026 µg/mL | neutralization IC80 [6]: 0.099 µg/mL | neutralization MPI [6]: 100 | neutralization IC50 [7]: 0.059 µg/mL | neutralization IC80 [7]: 0.328 µg/mL | neutralization MPI [7]: 100 | neutralization IC50 [8]: 0.473 µg/mL | neutralization IC80 [8]: 2.41 µg/mL | neutralization MPI [8]: 100 | neutralization IC50 [9]: 0.505 µg/mL | neutralization IC80 [9]: 4.23 µg/mL | neutralization MPI [9]: 97 | neutralization IC50 [10]: 0.066 µg/mL | neutralization IC80 [10]: 0.228 µg/mL | neutralization MPI [10]: 100 | neutralization IC50 [11]: 0.078 µg/mL | neutralization IC80 [11]: 0.419 µg/mL | neutralization MPI [11]: 97 | neutralization IC50 [12]: 0.048 µg/mL | neutralization IC80 [12]: 0.216 µg/mL | neutralization MPI [12]: 100 | neutralization IC50 [13]: 0.219 µg/mL | neutralization IC80 [13]: 0.756 µg/mL | neutralization MPI [13]: 100 | neutralization IC50 [14]: 0.028 µg/mL | neutralization IC80 [14]: 0.15 µg/mL | neutralization MPI [14]: 100 | neutralization IC50 [15]: 0.058 µg/mL | neutralization IC80 [15]: 0.142 µg/mL | neutralization MPI [15]: 100 | neutralization IC50 [16]: 0.105 µg/mL | neutralization IC80 [16]: 0.374 µg/mL | neutralization MPI [16]: 100 | neutralization IC50 [17]: 0.199 µg/mL | neutralization IC80 [17]: 0.726 µg/mL | neutralization MPI [17]: 100 | neutralization IC50 [18]: 0.136 µg/mL | neutralization IC80 [18]: 0.461 µg/mL | neutralization MPI [18]: 100 | neutralization IC50 [19]: 1.07 µg/mL | neutralization IC80 [19]: 5.4 µg/mL | neutralization MPI [19]: 100 | neutralization IC50 [20]: 0.022 µg/mL | neutralization IC80 [20]: 0.088 µg/mL | neutralization MPI [20]: 100 | neutralization IC50 [21]: 0.144 µg/mL | neutralization IC80 [21]: 1.05 µg/mL | neutralization MPI [21]: 100 | neutralization IC50 [22]: 0.764 µg/mL | neutralization IC80 [22]: 2.71 µg/mL | neutralization MPI [22]: 100 | neutralization IC50 [23]: 0.088 µg/mL | neutralization IC80 [23]: 0.289 µg/mL | neutralization MPI [23]: 100 | neutralization IC50 [24]: 0.111 µg/mL | neutralization IC80 [24]: 0.487 µg/mL | neutralization MPI [24]: 100 | neutralization IC50 [25]: 0.045 µg/mL | neutralization IC80 [25]: 0.131 µg/mL | neutralization MPI [25]: 100 | neutralization IC50 [26]: 0.069 µg/mL | neutralization IC80 [26]: 0.2 µg/mL | neutralization MPI [26]: 100 | neutralization IC50 [27]: 0.209 µg/mL | neutralization IC80 [27]: 1.04 µg/mL | neutralization MPI [27]: 100 | neutralization IC50 [28]: 0.055 µg/mL | neutralization IC80 [28]: 0.208 µg/mL | neutralization MPI [28]: 100 | neutralization IC50 [29]: 0.132 µg/mL | neutralization IC80 [29]: 0.623 µg/mL | neutralization MPI [29]: 100 | neutralization IC50 [30]: 3.76 µg/mL | neutralization IC80 [30]: 15.7 µg/mL | neutralization MPI [30]: 93
